Assay results reported in US20250154277A1 (CONCEPT TO MEDICINE BIOTECH, published 2025).
Residue numbers refer to the chain shown, from its start. Read-outs that look alike come from different tables or passages of the source. Blank lines part the entries; values can stand above or below the binder they belong to.

Key:
human 5T4-His protein [1] = target: T1, human 5T4-His protein (human, UniProt Q13641 32-355); experiment: SPR Biacore, Protein A capture
T1 construct: also called recombinant 5T4 protein (human 5T4-his tag); human 5T4 protein; not shown: His tag
T1 sequence (looked up): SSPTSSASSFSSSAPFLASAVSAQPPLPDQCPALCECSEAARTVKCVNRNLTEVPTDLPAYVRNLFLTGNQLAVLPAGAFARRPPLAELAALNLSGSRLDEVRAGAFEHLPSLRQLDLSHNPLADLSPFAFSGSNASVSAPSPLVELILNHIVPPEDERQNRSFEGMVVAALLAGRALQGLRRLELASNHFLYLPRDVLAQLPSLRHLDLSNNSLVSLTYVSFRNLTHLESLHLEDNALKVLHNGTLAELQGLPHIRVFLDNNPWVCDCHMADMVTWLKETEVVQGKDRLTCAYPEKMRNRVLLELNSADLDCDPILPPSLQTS
Procedure: (§1) The binding of the 286B4 humanized antibodies to recombinant 5T4 protein (human 5T4-his tag) was tested with Biacore using a capture method. The mAbs were captured using Protein A chip. A serial dilution of human 5T4-his tag protein was injected over captured antibody for 3 mins at a flow rate of 30 μl/min. The antigen was allowed to dissociate for 280-800 s. All the experiments were carried out on a Biacore T200. Data analysis was carried out using the Biacore T200 evaluation software.

human 5T4-His protein [2] = target: T1, human 5T4-His protein; experiment: ELISA, coated 5T4-His
Procedure: To evaluate the binding activity of clones, the 286B4 chimeric antibody along with 286B4 humanized mAbs were subjected to ELISA test.
(§2) Briefly, microtiter plates were coated with human 5T4-His protein at 1 μg/ml in PBS, 100 μl/well at 4° C. overnight, then blocked with 150 μl/well of 1% BSA. 4-fold dilutions of tested antibodies starting from 20 nM were added to each well and incubated for 1 hour at 37° C. The plates were washed with PBS/Tween and then incubated with Goat Anti-Human IgG-HRP for 30 mins at 37° C. After washing, the plates were developed with TMB substrate and analyzed by spectrophotometer at OD 450 nm. As shown in FIG. 16 and Table 15, most of the humanized clones bound to human 5T4 with high potency.

human 5T4-His protein [3] = target: T1, human 5T4-His protein; experiment: SPR Biacore, Protein A capture; remark: listed apart in the source
Procedure: as §1, with “393E9” for “286B4”

human 5T4-His protein [4] = target: T1, human 5T4-His protein; experiment: ELISA, coated 5T4-His; remark: listed apart in the source
Procedure: To evaluate the binding activity of 393E9 humanized antibodies to human 5T4, the 393E9 chimeric antibody (393E9-C) along with 393E9 humanized mAbs were subjected to ELISA test.
as §2, with “of” for “of tested”, “12” for “16”, “9,” for “15,”, “antibodies” for “clones”, “activity.” for “potency.”

- Kd (human 5T4-His protein [1]): 1.08 nM
- koff (human 5T4-His protein [1]): 0.000103 s⁻¹
- kon (human 5T4-His protein [1]): 94600 M⁻¹ s⁻¹
- EC50 (human 5T4-His protein [2]): 0.68 nM
B1: Hu286B4-8 (antibody, V domains shown)
VH: EVQLQESGPGLVKPSDTLSLTCAVSGYSISNNYYWNWIRQPPGKGLEWIGYITYDGSNNYNPSLKNRITMSRDTSKNQFSLKLSSVTAVDTAVYYCARGGGQLRFDYWGQGTTVTVSS
VL: DIQMTQSPSSLSASVGDRVTITCKASQSVSNEVTWYQQKPGKAPKMLIYYASNRYTGVPDRFSGSGYGTDFTFTISSLQPEDIATYYCQQDYSSPWTFGGGTKVEIK
notes: humanized

- Kd (human 5T4-His protein [1]): 1.18 nM
- koff (human 5T4-His protein [1]): 0.000133 s⁻¹
- kon (human 5T4-His protein [1]): 113000 M⁻¹ s⁻¹
- EC50 (human 5T4-His protein [2]): 0.42 nM
B2: Hu286B4-18 (antibody, V domains shown)
VH: B1 VH with S30T, I49M, M70V, A97T
VL: B1 VL
notes: humanized

- EC50 (human 5T4-His protein [2]): 0.42 nM
B3: Hu286B4-20 (antibody, V domains shown)
VH: B1 VH with S30T, I49M, M70V, A97T
VL: B1 VL with D1S, Q3V, A43S, Y87F
notes: humanized

- EC50 (human 5T4-His protein [2]): 4.03 nM
B4: Hu286B4-16 (antibody, V domains shown)
VH: B1 VH with S30T, I49M, M70V, A97T
VL: B1 VL with M46L, Y67S
notes: humanized

- EC50 (human 5T4-His protein [2]): 0.89 nM
B5: Hu286B4-12 (antibody, V domains shown)
VH: B1 VH with I49M, M70V
VL: B1 VL with Y67S
notes: humanized

- Kd (human 5T4-His protein [1]): 1.2 nM
- koff (human 5T4-His protein [1]): 0.000128 s⁻¹
- kon (human 5T4-His protein [1]): 106000 M⁻¹ s⁻¹
- EC50 (human 5T4-His protein [2]): 0.28 nM
B6: Hu286B4-5 (antibody, V domains shown)
VH: B1 VH with I68V
VL: B1 VL with D1S, Q3V, A43S, Y87F
notes: humanized

- EC50 (human 5T4-His protein [2]): 1.42 nM
B7: Hu286B4-11 (antibody, V domains shown)
VH: B1 VH with I49M, M70V
VL: B1 VL with M46L, Y67S
notes: humanized

- EC50 (human 5T4-His protein [2]): 2.64 nM
B8: Hu286B4-6 (antibody, V domains shown)
VH: B1 VH
VL: B1 VL with M46L, Y67S
notes: humanized

- EC50 (human 5T4-His protein [2]): 0.27 nM
B9: Hu286B4-19 (antibody, V domains shown)
VH: B1 VH with S30T, I49M, M70V, A97T
VL: B1 VL with A43S, Y87F
notes: humanized

- EC50 (human 5T4-His protein [2]): 0.71 nM
B10: Hu286B4-17 (antibody, V domains shown)
VH: B1 VH with S30T, I49M, M70V, A97T
VL: B1 VL with Y67S
notes: humanized

- EC50 (human 5T4-His protein [2]): 0.33 nM
B11: Hu286B4-9 (antibody, V domains shown)
VH: B1 VH
VL: B1 VL with A43S, Y87F
notes: humanized

- EC50 (human 5T4-His protein [2]): 1.76 nM
B12: Hu286B4-7 (antibody, V domains shown)
VH: B1 VH
VL: B1 VL with Y67S
notes: humanized

- Kd (human 5T4-His protein [1]): 1.14 nM
- koff (human 5T4-His protein [1]): 0.000107 s⁻¹
- kon (human 5T4-His protein [1]): 93400 M⁻¹ s⁻¹
- EC50 (human 5T4-His protein [2]): 0.51 nM
B13: Hu286B4-3 (antibody, V domains shown)
VH: B1 VH with I68V
VL: B1 VL
notes: humanized

- EC50 (human 5T4-His protein [2]): 0.46 nM
B14: Hu286B4-4 (antibody, V domains shown)
VH: B1 VH with I68V
VL: B1 VL with A43S, Y87F
notes: humanized

- EC50 (human 5T4-His protein [2]): 1.35 nM
B15: Hu286B4-2 (antibody, V domains shown)
VH: B1 VH with I68V
VL: B1 VL with Y67S
notes: humanized

- EC50 (human 5T4-His protein [2]): 3.81 nM
B16: Hu286B4-1 (antibody, V domains shown)
VH: B1 VH with I68V
VL: B1 VL with M46L, Y67S
notes: humanized

- Kd (human 5T4-His protein [1]): 1.12 nM
- koff (human 5T4-His protein [1]): 0.000107 s⁻¹
- kon (human 5T4-His protein [1]): 95500 M⁻¹ s⁻¹
- EC50 (human 5T4-His protein [2]): 0.57 nM
B17: Hu286B4-13 (antibody, V domains shown)
VH: B1 VH with I49M, M70V
VL: B1 VL
notes: humanized

- Kd (human 5T4-His protein [1]): 1.04 nM
- koff (human 5T4-His protein [1]): 0.000114 s⁻¹
- kon (human 5T4-His protein [1]): 110000 M⁻¹ s⁻¹
- EC50 (human 5T4-His protein [2]): 0.25 nM
B18: Hu286B4-15 (antibody, V domains shown)
VH: B1 VH with I49M, M70V
VL: B1 VL with D1S, Q3V, A43S, Y87F
notes: humanized

- EC50 (human 5T4-His protein [2]): 0.3 nM
B19: Hu286B4-14 (antibody, V domains shown)
VH: B1 VH with I49M, M70V
VL: B1 VL with A43S, Y87F
notes: humanized

- Kd (human 5T4-His protein [3]): 0.599 nM
- koff (human 5T4-His protein [3]): 0.000119 s⁻¹
- kon (human 5T4-His protein [3]): 199000 M⁻¹ s⁻¹
- EC50 (human 5T4-His protein [4]): 0.13 nM
B20: 393E9_hVH1_hVL4 (antibody, V domains shown)
VH: EVQLVESGGGLVQPGGSLRLSCAASGFTFTDYYMSWVRQAPGKGLEWVGFIRNKGNGYTTENSASVKGRFTISRDNSKSTLYLQMNSLRAEDTAVYYCARYRGNPHYAMDYWGQGTLVTVSS
VL: DIVLTQSPLSLPVTPGEPASISCRASESVEFYGTSFLQWYLQKPGQSPQLLIYGASNVESGVPDRFSGSGSGTDFTLKISRVEAEDIGVYFCQQSRKVPSTFGGGTKVEIK
notes: humanized

- Kd (human 5T4-His protein [3]): 0.65 nM
- koff (human 5T4-His protein [3]): 0.000127 s⁻¹
- kon (human 5T4-His protein [3]): 195000 M⁻¹ s⁻¹
- EC50 (human 5T4-His protein [4]): 0.12 nM
B21: 393E9_hVH2_hVL4 (antibody, V domains shown)
VH: B20 VH with V12I, A40P
VL: B20 VL
notes: humanized

- Kd (human 5T4-His protein [3]): 0.679 nM
- koff (human 5T4-His protein [3]): 0.000125 s⁻¹
- kon (human 5T4-His protein [3]): 184000 M⁻¹ s⁻¹
- EC50 (human 5T4-His protein [4]): 0.17 nM
B22: 393E9_hVH5_hVL4 (antibody, V domains shown)
VH: B20 VH with G16R, A23T, T80I, R89K, A90T
VL: B20 VL
notes: humanized

- Kd (human 5T4-His protein [3]): 0.573 nM
- koff (human 5T4-His protein [3]): 0.000123 s⁻¹
- kon (human 5T4-His protein [3]): 215000 M⁻¹ s⁻¹
- EC50 (human 5T4-His protein [4]): 0.095 nM
B23: 393E9_hVH3_hVL4 (antibody, V domains shown)
VH: B20 VH with E1Q, L11V
VL: B20 VL
notes: humanized
